The values that follow come from PMC2847587.

Assay in all cases: immunodepletion
The target in assay [1] is FAAP24 (human (endogenous in HeLa)) (UniProt Q9BTP7).
Assay [2] concerns the target FANCA (human (endogenous in HeLa)) (UniProt O15360).
The target of assay [3] is MHF1 (FANCM-associated Histone Fold protein 1) (human (endogenous in HeLa)) (UniProt Q8N2Z9).
In assay [4] the target is MHF2 (FANCM-associated Histone Fold protein 2) (human (endogenous in HeLa)) (UniProt A8MT69). The conditions noted are these: remark: other sources report otherwise.
Sequence of MHF2 (FANCM-associated Histone Fold protein 2) (human (endogenous in HeLa)) (A8MT69 whole entry): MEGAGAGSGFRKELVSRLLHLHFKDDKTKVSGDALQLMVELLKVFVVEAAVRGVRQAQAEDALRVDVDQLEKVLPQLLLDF

Sequence of FANCA (human (endogenous in HeLa)) (O15360 whole entry): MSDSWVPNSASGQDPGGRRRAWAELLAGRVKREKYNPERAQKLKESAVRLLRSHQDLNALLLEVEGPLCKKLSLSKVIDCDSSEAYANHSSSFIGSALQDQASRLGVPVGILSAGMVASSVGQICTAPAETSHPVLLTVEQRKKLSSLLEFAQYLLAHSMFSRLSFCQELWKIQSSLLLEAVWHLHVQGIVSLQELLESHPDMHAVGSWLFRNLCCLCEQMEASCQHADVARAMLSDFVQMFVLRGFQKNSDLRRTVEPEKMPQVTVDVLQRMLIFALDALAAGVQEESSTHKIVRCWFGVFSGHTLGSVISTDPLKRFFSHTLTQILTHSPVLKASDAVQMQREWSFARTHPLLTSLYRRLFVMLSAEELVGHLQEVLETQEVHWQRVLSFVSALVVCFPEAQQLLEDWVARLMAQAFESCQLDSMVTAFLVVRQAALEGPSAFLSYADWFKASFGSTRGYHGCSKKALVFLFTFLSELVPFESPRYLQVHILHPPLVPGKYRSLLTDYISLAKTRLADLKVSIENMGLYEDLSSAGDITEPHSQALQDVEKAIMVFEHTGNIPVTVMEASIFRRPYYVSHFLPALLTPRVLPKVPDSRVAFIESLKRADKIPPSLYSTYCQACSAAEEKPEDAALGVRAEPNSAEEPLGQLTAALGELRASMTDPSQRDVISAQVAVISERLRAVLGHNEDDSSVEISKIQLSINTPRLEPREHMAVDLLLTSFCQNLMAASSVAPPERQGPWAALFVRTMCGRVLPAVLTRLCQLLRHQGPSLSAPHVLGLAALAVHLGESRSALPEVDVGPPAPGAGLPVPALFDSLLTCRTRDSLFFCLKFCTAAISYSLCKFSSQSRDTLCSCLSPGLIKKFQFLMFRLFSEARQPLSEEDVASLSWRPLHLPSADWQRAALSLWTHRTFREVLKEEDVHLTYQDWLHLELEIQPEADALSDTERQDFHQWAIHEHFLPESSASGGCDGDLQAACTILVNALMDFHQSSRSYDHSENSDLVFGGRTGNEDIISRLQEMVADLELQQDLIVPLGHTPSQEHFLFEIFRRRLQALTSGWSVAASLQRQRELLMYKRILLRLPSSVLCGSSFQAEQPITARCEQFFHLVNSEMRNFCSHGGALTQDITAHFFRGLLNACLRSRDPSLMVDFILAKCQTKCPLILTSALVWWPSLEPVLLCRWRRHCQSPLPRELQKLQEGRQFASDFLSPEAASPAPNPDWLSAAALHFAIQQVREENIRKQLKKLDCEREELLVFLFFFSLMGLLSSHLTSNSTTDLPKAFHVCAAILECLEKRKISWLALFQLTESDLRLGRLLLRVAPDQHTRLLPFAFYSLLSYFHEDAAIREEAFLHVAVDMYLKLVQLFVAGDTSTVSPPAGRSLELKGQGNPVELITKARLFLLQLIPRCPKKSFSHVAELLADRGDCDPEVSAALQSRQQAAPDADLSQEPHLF
Sequence of MHF1 (FANCM-associated Histone Fold protein 1) (human (endogenous in HeLa)) (Q8N2Z9 whole entry): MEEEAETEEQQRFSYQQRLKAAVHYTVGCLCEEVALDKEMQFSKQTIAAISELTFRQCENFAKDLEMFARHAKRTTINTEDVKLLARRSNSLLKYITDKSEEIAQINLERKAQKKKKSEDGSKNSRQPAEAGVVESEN
Sequence of FAAP24 (human (endogenous in HeLa)) (Q9BTP7 whole entry): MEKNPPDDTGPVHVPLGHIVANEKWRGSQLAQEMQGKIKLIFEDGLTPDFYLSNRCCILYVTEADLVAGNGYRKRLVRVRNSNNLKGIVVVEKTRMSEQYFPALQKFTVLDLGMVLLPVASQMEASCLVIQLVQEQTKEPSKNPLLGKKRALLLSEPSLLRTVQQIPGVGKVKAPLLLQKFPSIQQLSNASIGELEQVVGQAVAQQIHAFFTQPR

Consider FANCM, Q8IYD8 1-2048, for which the percent co-depleted in assay [1] is 70%; in assay [2], < 30%; in assay [3], 85%; in assay [4], 85%.
